Earlier results, collected in article PMC8241641 (European Journal of Nuclear Medicine and Molecular Imaging, 2021).

Parameters: method as in PMID 28864620

[^177Lu]Lu-DOTA-TATE
Dose to the bone marrow typically calculated: 0.03–0.07 Gy/GBq
